Data published in patent US12410262B2, “Peptide conjugates of cytotoxins as therapeutics” (Cybrexa 2, Inc., priority 2019, dated 2025).

Legend:
Plasma stability studies = type: in vitro ADME; conditions: rat plasma, 100 μM conjugate, 37° C.
Method in brief: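 Conjugate at 100 μM final in rat plasma (diluted from DMSO stock via 100 mM Tris, pH 7.5), incubated at 37° C for up to 24 h, sampled at 0, 4 and 24 h. Samples acid/acetonitrile-extracted and analysed by HPLC; remaining conjugate expressed as peak area relative to time 0 ×100.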

[1] = Plasma pharmacokinetics of Compound 11 in a rat model; type: in vivo, Sprague Dawley rats; conditions: single IV dose 5 mg/kg
Description: Male Sprague Dawley rats underwent jugular vein cannulation and insertion of a vascular access button (VAB, Instech Labs Cat #VABR1B/22) at Envigo Labs prior to shipment. Magnetic, aluminum caps (Instech Labs Cat #Cat #VABRC) were used to protect the access port for the jugular catheters allowing the animals to be housed 2 per cage on corn cob bedding for 4-5 days prior to the study. Rats were administered a single intravenous dose of 5 mg/kg Compound 11 prepared in a vehicle of 5% mannitol in citrate buffer. At 1, 2, 4, 8, 24 and 30 hours following compound administration, blood (250 μL) was collected into K2EDTA filled microtainers from fed rats. Plasma was isolated by centrifugation and 100 μL aliquots were transferred to 96-well polypropylene plates on dry ice. Samples were stored at −80° C. until processed for quantification of total peptide by ELISA and released exatecan by LC-MS/MS.
96-Well plates were coated with 100 μL/well of 0.1 μM BSA-labelled peptide prepared in 0.2 M Carbonate-Bicarbonate Buffer, pH 9.4 and incubated overnight at 4° C. […] Luminescence was read from the plate on a BioTek Cytation 5 plate reader.
For quantification of exatecan, a 20 μL plasma sample was added to a polypropylene autosampler vial. […] The samples were centrifuged for 5-10 minutes at 3700 rpm then analyzed via liquid chromatography tandem mass spectrometry (LC-MS/MS).

CC[C@@]1(O)C(=O)OCc2c1cc1n(c2=O)Cc2c-1nc1cc(F)c(C)c3c1c2[C@@H](NC(=O)O[C@H]1CCCC[C@@H]1SSC[C@H](NC(=O)[C@H](Cc1c[nH]c2ccccc12)NC(=O)[C@H](CC(C)C)NC(=O)[C@H](CC(C)C)NC(=O)[C@H](CC(=O)O)NC(=O)[C@H](CC(C)C)NC(=O)[C@H](CC(C)C)NC(=O)[C@H](CC(C)C)NC(=O)[C@@H](NC(=O)[C@H](CC(=O)O)NC(=O)[C@@H](NC(=O)[C@@H]1CCCN1C(=O)[C@H](Cc1ccccc1)NC(=O)[C@H](CC(C)C)NC(=O)[C@H](CC(C)C)NC(=O)[C@H](CC(=O)O)NC(=O)[C@H](CC(C)C)NC(=O)[C@H](Cc1ccc(O)cc1)NC(=O)[C@H](C)NC(=O)[C@H](CCCNC(=N)N)NC(=O)[C@H](Cc1c[nH]c2ccccc12)NC(=O)[C@@H]1CCCN1C(=O)[C@H](CC(N)=O)NC(=O)[C@H](CCC(N)=O)NC(=O)[C@H](CC(=O)O)NC(=O)[C@H](CC(=O)O)NC(=O)[C@H](C)N)[C@@H](C)O)[C@@H](C)O)C(=O)NCC(=O)O)CC3 [Compound 11]
remaining at 4 h, 100 µM (Plasma stability studies; 4 hrs): 108% | remaining at 24 h, 100 µM (Plasma stability studies; 24 hrs): 107% | stable in plasma [1]: at least 30 h | exatecan warhead released in circulation ([1]; after 30 h): less than 0.002%
